Reference: patent publication US11542537B2, “High-purity steviol glycosides” (PureCircle Sdn Bhd, priority 2012, dated 2023)

B1: UGTSL2: Solanum lycopersicum UDP-glucosyltransferase GI_460410132, SEQ ID 9, E. coli lysate (protein, listed as Escherichia coli)
chain: MATNLRVLMFPWLAYGHISPFLNIAKQLADRGFLIYLCSTRINLESIIKKIPEKYADSIHLIELQLPELPELPPHYHTTNGLPPHLNPTLHKALKMSKPNFSRILQNLKPDLLIYDVLQPWAEHVANEQNIPAGKLLTSCAAVFSYFFSFRKNPGVEFPFPAIHLPEVEKVKIREILAKEPEEGGRLDEGNKQMMLMCTSRTIEAKYIDYCTELCNWKVVPVGPPFQDLITNDADNKELIDWLGTKHENSTVFVSFGSEYFLSKEDMEEVAFALELSNVNFIWVARFPKGEERNLEDALPKGFLERIGERGRVLDKFAPQPRILNHPSTGGFISHCGWNSAMESIDFGVPIIAMPIHNDQPINAKLMVELGVAVEIVRDDDGKIHRGEIAETLKSVVTGETGEILRAKVREISKNLKSIRDEEMDAVAEELIQLCRNSNKSK
B2: S115N01 A1: UDP-glucosyltransferase Os03g0702500, Oryza sativa Japonica Group, SEQ ID 3 (protein, listed as Oryza sativa)
chain: MDDAHSSQSPLHVVIFPWLAFGHLLPCLDLAERLAARGHRVSFVSTPRNLARLPPVRPELAELVDLVALPLPRVDGLPDGAEATSDVPFDKFELHRKAFDGLAAPFSAFLDTACAGGKRPDWVLADLMHHWVALASQERGVPCAMILPCSAAVVASSAPPTESSADQREAIVRSMGTAAPSFEAKRATEEFATEGASGVSIMTRYSLTLQRSKLVAMRSCPELEPGAFTILTRFYGKPVVPFGLLPPRPDGARGVSKNGKHDAIMQWLDAQPAKSVVYVALGSEAPMSADLLRELAHGLDLAGTRFLWAMRKPAGVDADSVLPAGFLGRTGERGLVTTRWAPQVSILAHAAVCAFLTHCGWGSVVEGLQFGHPLIMLPILGDQGPNARILEGRKLGVAVPRNDEDGSFDRGGVAGAVRAVVVEEEGKTFFANARKLQEIVADREREERCIDEFVQHLTSWNELKNNSDGQYP
B3: S115N06 C2: UDP-glucoronosyl/UDP-glucosyl transferase family protein, Arabidopsis lyrata subsp. lyrata, SEQ ID 7 (protein, listed as Arabidopsis lyrata)
chain: MDDKKEEVMHIAMFPWLAMGHLLPFLRLSKLLAQKGHKISFISTPRNILRLPKLPSNLSSSITFVSFPLPSISGLPPSSESSMDVPYNKQQSLKAAFDLLQPPLTEFLRLSSPDWIIYDYASHWLPSIAKELGISKAFFSLFNAATLCFMGPSSSLIEESRSTPEDFTVVPPWVPFKSTIVFRYHEVSRYVEKTDEDVTGVSDSVRFGYTIDGSDAVFVRSCPEFEPEWFSLLQDLYRKPVFPIGFLPPVIEDDDDDTTWVRIKEWLDKQRVNSVVYVSLGTEASLRREELTELALGLEKSETPFFWVLRNEPQIPDGFEERVKGRGMVHVGWVPQVKILSHESVGGFLTHCGWNSVVEGIGFGKVPIFLPVLNEQGLNTRLLQGKGLGVEVLRDERDGSFGSDSVADSVRLVMIDDAGEEIREKVKLMKGLFGNMDENIRYVDELVGFMRNDESSQLKEEEEEDDCSDDQSSEVSSETDEKELNLDLKEEKRRISVYKSLSSEFDDYVANEKMG
B4: UGTLB: Lycium barbarum UDP-glucosyltransferase GI_209954733, SEQ ID 10, E. coli lysate (protein, listed as Escherichia coli)
chain: MGTEVTVHKNTLRVLMFPWLAYGHISPFLNVAKKLVDRGFLIYLCSTAINLKSTIKKIPEKYSDSIQLIELHLPELPELPPHYHTTNGLPPHLNHTLQKALKMSKPNFSKILQNLKPDLVIYDLLQQWAEGVANEQNIPAVKLLTSGAAVLSYFFNLVKKPGVEFPFPAIYLRKNELEKMSELLAQSAKDKEPDGVDPFADGNMQVMLMSTSRIIEAKYIDYFSGLSNWKVVPVGPPVQDPIADDADEMELIDWLGKKDENSTVFVSFGSEYFLSKEDREEIAFGLELSNVNFIWVARFPKGEEQNLEDALPKGFLERIGDRGRVLDKFAPQPRILNHPSTGGFISHCGWNSVMESVDFGVPIIAMPIHLDQPMNARLIVELGVAVEIVRDDYGKIHREEIAEILKDVIAGKSGENLKAKMRDISKNLKSIRDEEMDTAAEELIQLCKNSPKLK
B5: S115N01 G2: UDP-glycosyltransferase, Avena strigosa, SEQ ID 4 (protein, listed as Avena strigosa)
chain: MAVKDEQQSPLHILLFPFLAPGHLIPIADMAALFASRGVRCTILTTPVNAAIIRSAVDRANDAFRGSDCPAIDISVVPFPDVGLPPGVENGNALTSPADRLKFFQAVAELREPFDRFLADNHPDAVVSDSFFHWSTDAAAEHGVPRLGFLGSSMFAGSCNESTLHNNPLETAADDPDALVSLPGLPHRVELRRSQMMDPKKRPDHWALLESVNAADQKSFGEVFNSFHELEPDYVEHYQTTLGRRTWLVGPVALASKDMAGRGSTSARSPDADSCLRWLDTKQPGSVVYVSFGTLIRFSPAELHELARGLDLSGKNFVWVLGRAGPDSSEWMPQGFADLITPRGDRGFIIRGWAPQMLILNHRALGGFVTHCGWNSTLESVSAGVPMVTWPRFADQFQNEKLIVEVLKVGVSIGAKDYGSGIENHDVIRGEVIAESIGKLMGSSEESDAIQRKAKDLGAEARSAVENGGSSYNDVGRLMDELMARRSSVKVGEDIIPTNDGL
B6: S115N06 E1: hypothetical protein OsJ_04191, Oryza sativa Japonica Group, SEQ ID 6 (protein, listed as Oryza sativa)
chain: MHVVMLPWLAFGHILPFAEFAKRVARQGHRVTLFSTPRNTRRLIDVPPSLAGRIRVVDIPLPRVEHLPEHAEATIDLPSNDLRPYLRRAYDEAFSRELSRLLQETGPSRPDWVLADYAAYWAPAAASRHGVPCAFLSLFGAAALCFFGPAETLQGRGPYAKTEPAHLTAVPEYVPFPTTVAFRGNEARELFKPSLIPDESGVSESYRFSQSIEGCQLVAVRSNQEFEPEWLELLGELYQKPVIPIGMFPPPPPQDVAGHEETLRWLDRQEPNSVVYAAFGSEVKLTAEQLQRIALGLEASELPFIWAFRAPPDAGDGDGLPGGFKERVNGRGVVCRGWVPQVKFLAHASVGGFLTHAGWNSIAEGLANGVRLVLLPLMFEQGLNARQLAEKKVAVEVARDEDDGSFAANDIVDALRRVMVGEEGDEFGVKVKELAKVFGDDEVNDRYVRDFLKCLSEYKMQRQG

Assays:
Type in all cases: biochemical
[1] = Activity for Rubusoside to Rebaudioside E conversion (UGTSL, UGTSL2, UGTLB lysates); details: based on initial concentration of Rubusoside; reaction time 45 h. (UGTSL), 2 h. (UGTSL2)
Protocol: Activity tests were performed at 3 mL scale with 600 μL of lysate for the transformation of Rubusoside using 0.5 mM of substrate, 2.5 mM of UDP-Glucose and 3 mM MgCl2 in 50 mM Sodium Phosphate buffer at pH 7.2. The HPLC assay was performed as described in EXAMPLE 20.
Activity tests were performed at 3 mL scale with 600 μL of lysate for the transformation of Rubusoside using 0.5 mM of substrate, 2.5 mM of UDP-Glucose and 3 mM MgCl2 in 50 mM Sodium Phosphate buffer at pH 7.2. Samples were taken and analyzed by HPLC. The corresponding chromatogram is depicted in FIG. 65.

[2] = LCMS of Rubusoside conversion products with UGTSL, UGTSL2, UGTLB; details: UGTSL2 2 hrs, UGTLB 5 hrs, UGTSL 45 hrs
Protocol: (§1) Conversion of stevioside with UGTSL and UGTSL2 was conducted in similar manner to Example 28, and the conversion of rubusoside with UGTSL and UGTSL2 was conducted similarly to Example 29. Conversions of rubusoside and stevioside with UGTLB was conducted similarly to Example 32.
(§2) The reaction mixtures were analyzed by LCMS to determine all reaction products.

[3] = LCMS of Stevioside conversion products with UGTSL, UGTSL2, UGTLB; details: UGTSL2 2 hrs, UGTLB 2 hrs, UGTSL 22 hrs
Protocol: as §1, §2

[4] = Catalytic test of in-vitro expressed UDP-glucosyltransferases, Rebaudioside A to Rebaudioside D (HPLC CAD); details: 0.5 mM Rebaudioside A, 30° C., T24h sample; for Steviol glycoside conversion in reaction mixture: Reb A: remaining substrate; for Steviol glycoside conversion in reaction mixture: Reb UNK: Reb UNK later identified as reb D2
Protocol: 18 μL of plasmid solution (containing approximately 1.5 μg of plasmid) was used for in-vitro expression according to the Promega S30 T7 High-Yield Protein Expression System (ref: L1110) kit. The expression medium was produced as follows:
The prepared expression medium mix was added to the plasmid solution and the solution was allowed to incubate at 30° C. for 3 hours while mixing the mixture every 45 minutes. 5 μL of the mixture was frozen whereas the remainder was used for the catalytic test for the conversion of Rebaudioside A to Rebaudioside D.
(§3) 430 μL of a reaction mixture containing 0.5 mM Rebaudioside A, 3 mM MgCl2, 50 mM phosphate buffer (pH7.2) and 2.5 mM UDP-glucose was added to a 1.5 mL sterile microtube. 52 μL of the enzyme expression medium was added and the resulting mixture was allowed to react at 30° C. for 24 hours. 125 μL samples were taken after 2 hours, 16 hours and 24 hours and added to a 115 μL of 60% methanol and 10 μL of 2 N H2SO4. The quenched sample was centrifuged at 18,000 g for 2 minutes at RT. 200 μL was transferred to an HPLC vial and analyzed.
The HPLC assay was performed as follows:
as §3, with “RT.” for “RT. 200 μL was transferred to an HPLC vial and analyzed.”
The HPLC assay was performed as described in EXAMPLE 20.

Molecule | LC-MS, peak area ratio (%) Reb D [2] | LC-MS, peak area ratio (%) Reb E [2] | LC-MS, peak area ratio (%) Rub [2] | LC-MS, peak area ratio (%) Unknown peak #1 (MW804) RT 30.70 min [2] | LC-MS, peak area ratio (%) Unknown peak #2 (MW804) RT 49.50 min [2] | LC-MS, peak area ratio (%) Unknown peak #3 (MW804) RT 50.40 min [2] | LC-MS, peak area ratio (%) Reb E [3] | LC-MS, peak area ratio (%) Stev [3] | LC-MS, peak area ratio (%) Unknown peak #2 (MW966) RT = 26.50 min [3] | Steviol glycoside conversion in reaction mixture: Reb D [4] | Steviol glycoside conversion in reaction mixture: Reb A [4] | Steviol glycoside conversion in reaction mixture: Reb UNK [4] | other results
B1 | 6.73% | 52.88% | 3.54% | 12.02% | 9.94% | 12.77% | 42.56% | 20.01% | 5.56% | – | – | – | Rubusoside conv. (reactiontime) [1]: 80% (2 h.); LC-MS, peak area ratio (%) Stev [2]: 2.12%; LC-MS, peak area ratio (%) Reb D [3]: 1.70%; LC-MS, peak area ratio (%) Unknown peak #1 (MW966) RT = 22.60 min [3]: 4.48%; LC-MS, peak area ratio (%) Unknown peak #3 (MW966) RT = 29.50 min [3]: 25.70%
B2 | – | – | – | – | – | – | – | – | – | 2.1 % area | 96.7 % area | – | –
B3 | – | – | – | – | – | – | – | – | – | 0.28 % area | 95.8 % area | 3.9 % area | –
B4 | 1.29% | 9.21% | 13.49% | 4.07% | 66.67% | 5.27% | 3.12% | 43.11% | 53.78% | – | – | – | –
B5 | – | – | – | – | – | – | – | – | – | 0.6 % area | 99.4 % area | – | –
B6 | – | – | – | – | – | – | – | – | – | 0.14 % area | 92.8 % area | 7.0 % area | –
